Measured values published in patent US10487121B2, “D-peptide inhibitors of HIV entry and methods of use” (priority 2016, dated 2019).
Read-outs that look alike come from different tables or passages of the source.

Assay: Rodent pharmacokinetics of PIE12-trimer and conjugates (Table 3 protocol)
Format: in vivo, Sprague Dawley rats
Details: rats; for bioavailability: Sprague Dawley; for bioavailability / AUC(0-inf) / C0 / clearance / half-life / Vd / Cmax / Tmax: rat; for AUC(0-inf) / C0 / clearance / half-life / Vd / Cmax / Tmax: in vivo; for clearance: read-out: Cl (obs) (converted); for half-life: read-out: T1/2 (converted); for Vd: read-out: Vz (obs)
Experimental: At each timepoint, plasma was obtained using lithium heparin.
Samples were spiked with an internal standard then precipitated with two volumes of 98% acetonitrile/2% Formic acid. Supernatants were analyzed by LC/MS/MS using an Agilent HPLC system (Waters X-Bridge BEH C18 column) paired to an AB Sciex API 3000 triple-quad mass spectrometer using MRM methods. Lipid conjugates required lower source temperatures (300° C. vs 500° C.) for improved reproducibility.

Row | SMILES | bioavailability (SC, 1.0 mg/kg, plasma, median) [%] | AUC(0-inf) (IV, 1.0 mg/kg, plasma, median) [µM·h] | C0 (IV, 1.0 mg/kg, plasma, median) [nM] | clearance (IV, 1.0 mg/kg, plasma, median) [mL/min/kg] | half-life (IV, 1.0 mg/kg, plasma, median) [h] | Vd (IV, 1.0 mg/kg, plasma, median) [L/kg] | AUC(0-inf) (SC, 1.0 mg/kg, plasma, median) [µM·h] | Cmax (SC, 1.0 mg/kg, plasma, median) [nM] | Tmax (SC, 1.0 mg/kg, plasma, median) [h] | half-life (SC, 1.0 mg/kg, plasma, median) [h] | other results
1 | CCCCCCCCCCCCCCCCSC1CC(=O)N(CCC(=O)NCCOCCOCCOCCOCCOCCOCCOCCOCCOCCOCCOCCOCCOCCOCCOCCOCCOCCOCCOCCOCCOCCOCCOCCOCCC(=O)NC(COCCC(=O)NCCOCCOCCOCCOCCC(=O)NCCCC[C@@H](NC(=O)CNC(=O)[C@@H](CC(C)C)NC(=O)[C@@H](CCC(=O)O)NC(=O)[C@H]2CSSC[C@@H](NC(=O)[C@H]3CCCN3C(=O)[C@@H](Cc3c[nH]cn3)NC(C)=O)C(=O)N[C@H](CC(=O)O)C(=O)N[C@H](Cc3ccc(O)cc3)C(=O)N3CCC[C@@H]3C(=O)N[C@H](CCC(=O)O)C(=O)N[C@H](Cc3c[nH]c4ccccc34)C(=O)N[C@H](CCC(N)=O)C(=O)N[C@H](Cc3c[nH]c4ccccc34)C(=O)N[C@H](CC(C)C)C(=O)N2)C(N)=O)(COCCC(=O)NCCOCCOCCOCCOCCC(=O)NCCCC[C@@H](NC(=O)CNC(=O)[C@@H](CC(C)C)NC(=O)[C@@H](CCC(=O)O)NC(=O)[C@H]2CSSC[C@@H](NC(=O)[C@H]3CCCN3C(=O)[C@@H](Cc3c[nH]cn3)NC(C)=O)C(=O)N[C@H](CC(=O)O)C(=O)N[C@H](Cc3ccc(O)cc3)C(=O)N3CCC[C@@H]3C(=O)N[C@H](CCC(=O)O)C(=O)N[C@H](Cc3c[nH]c4ccccc34)C(=O)N[C@H](CCC(N)=O)C(=O)N[C@H](Cc3c[nH]c4ccccc34)C(=O)N[C@H](CC(C)C)C(=O)N2)C(N)=O)COCCC(=O)NCCOCCOCCOCCOCCC(=O)NCCCC[C@@H](NC(=O)CNC(=O)[C@@H](CC(C)C)NC(=O)[C@@H](CCC(=O)O)NC(=O)[C@H]2CSSC[C@@H](NC(=O)[C@H]3CCCN3C(=O)[C@@H](Cc3c[nH]cn3)NC(C)=O)C(=O)N[C@H](CC(=O)O)C(=O)N[C@H](Cc3ccc(O)cc3)C(=O)N3CCC[C@@H]3C(=O)N[C@H](CCC(=O)O)C(=O)N[C@H](Cc3c[nH]c4ccccc34)C(=O)N[C@H](CCC(N)=O)C(=O)N[C@H](Cc3c[nH]c4ccccc34)C(=O)N[C@H](CC(C)C)C(=O)N2)C(N)=O)C1=O (stereo partly shown) [C16-PIE12-Trimer] | 38 | 1.16 | 1880 | 1.67 | 0.93 | 0.14 | 0.442 | 192 | 1 | 1.18 | –
2 | CCCCCCCCCCCCCCCC(=O)N[C@H](CSC1CC(=O)N(CCC(=O)NCCOCCOCCOCCOCCOCCOCCOCCOCCOCCOCCOCCOCCOCCOCCOCCOCCOCCOCCOCCOCCOCCOCCOCCOCCC(=O)NC(COCCC(=O)NCCOCCOCCOCCOCCC(=O)NCCCC[C@@H](NC(=O)CNC(=O)[C@@H](CC(C)C)NC(=O)[C@@H](CCC(=O)O)NC(=O)[C@H]2CSSC[C@@H](NC(=O)[C@H]3CCCN3C(=O)[C@@H](Cc3c[nH]cn3)NC(C)=O)C(=O)N[C@H](CC(=O)O)C(=O)N[C@H](Cc3ccc(O)cc3)C(=O)N3CCC[C@@H]3C(=O)N[C@H](CCC(=O)O)C(=O)N[C@H](Cc3c[nH]c4ccccc34)C(=O)N[C@H](CCC(N)=O)C(=O)N[C@H](Cc3c[nH]c4ccccc34)C(=O)N[C@H](CC(C)C)C(=O)N2)C(N)=O)(COCCC(=O)NCCOCCOCCOCCOCCC(=O)NCCCC[C@@H](NC(=O)CNC(=O)[C@@H](CC(C)C)NC(=O)[C@@H](CCC(=O)O)NC(=O)[C@H]2CSSC[C@@H](NC(=O)[C@H]3CCCN3C(=O)[C@@H](Cc3c[nH]cn3)NC(C)=O)C(=O)N[C@H](CC(=O)O)C(=O)N[C@H](Cc3ccc(O)cc3)C(=O)N3CCC[C@@H]3C(=O)N[C@H](CCC(=O)O)C(=O)N[C@H](Cc3c[nH]c4ccccc34)C(=O)N[C@H](CCC(N)=O)C(=O)N[C@H](Cc3c[nH]c4ccccc34)C(=O)N[C@H](CC(C)C)C(=O)N2)C(N)=O)COCCC(=O)NCCOCCOCCOCCOCCC(=O)NCCCC[C@@H](NC(=O)CNC(=O)[C@@H](CC(C)C)NC(=O)[C@@H](CCC(=O)O)NC(=O)[C@H]2CSSC[C@@H](NC(=O)[C@H]3CCCN3C(=O)[C@@H](Cc3c[nH]cn3)NC(C)=O)C(=O)N[C@H](CC(=O)O)C(=O)N[C@H](Cc3ccc(O)cc3)C(=O)N3CCC[C@@H]3C(=O)N[C@H](CCC(=O)O)C(=O)N[C@H](Cc3c[nH]c4ccccc34)C(=O)N[C@H](CCC(N)=O)C(=O)N[C@H](Cc3c[nH]c4ccccc34)C(=O)N[C@H](CC(C)C)C(=O)N2)C(N)=O)C1=O)C(=O)O (stereo partly shown) [Palm-PIE12-trimer] | – | – | – | – | – | – | – | – | – | – | AUC(0-inf) (IV, 1.2 mg/kg, plasma, median): 2.24 µM·h; C0 (IV, 1.2 mg/kg, plasma, median): 2240 nM; clearance (IV, 1.2 mg/kg, plasma, median): 1.02 mL/min/kg; half-life (IV, 1.2 mg/kg, plasma, median): 1.83 h; Vd (IV, 1.2 mg/kg, plasma, median): 0.14 L/kg; AUC(0-inf) (SC, 1.2 mg/kg, plasma, median): 2.31 µM·h; Cmax (SC, 1.2 mg/kg, plasma, median): 585 nM; Tmax (SC, 1.2 mg/kg, plasma, median): 1 h; half-life (SC, 1.2 mg/kg, plasma, median): 2.23 h; increase of IV half-life vs PIE12-trimer (IV): > 3 fold; reduction of clearance vs PIE12-trimer (IV): ~14 fold; bioavailability upon SC dosing, in words (SC): fully bioavailable; F (SC, 1.2 mg/kg, plasma, median): 103%; extension of SC (apparent) half-life vs PIE12-trimer (SC, terminal phase elimination): ~3 fold
3 | CCCCCCCCCCCCCCCCCCSC1CC(=O)N(CCC(=O)NCCOCCOCCOCCOCCOCCOCCOCCOCCOCCOCCOCCOCCOCCOCCOCCOCCOCCOCCOCCOCCOCCOCCOCCOCCC(=O)NC(COCCC(=O)NCCOCCOCCOCCOCCC(=O)NCCCC[C@@H](NC(=O)CNC(=O)[C@@H](CC(C)C)NC(=O)[C@@H](CCC(=O)O)NC(=O)[C@H]2CSSC[C@@H](NC(=O)[C@H]3CCCN3C(=O)[C@@H](Cc3c[nH]cn3)NC(C)=O)C(=O)N[C@H](CC(=O)O)C(=O)N[C@H](Cc3ccc(O)cc3)C(=O)N3CCC[C@@H]3C(=O)N[C@H](CCC(=O)O)C(=O)N[C@H](Cc3c[nH]c4ccccc34)C(=O)N[C@H](CCC(N)=O)C(=O)N[C@H](Cc3c[nH]c4ccccc34)C(=O)N[C@H](CC(C)C)C(=O)N2)C(N)=O)(COCCC(=O)NCCOCCOCCOCCOCCC(=O)NCCCC[C@@H](NC(=O)CNC(=O)[C@@H](CC(C)C)NC(=O)[C@@H](CCC(=O)O)NC(=O)[C@H]2CSSC[C@@H](NC(=O)[C@H]3CCCN3C(=O)[C@@H](Cc3c[nH]cn3)NC(C)=O)C(=O)N[C@H](CC(=O)O)C(=O)N[C@H](Cc3ccc(O)cc3)C(=O)N3CCC[C@@H]3C(=O)N[C@H](CCC(=O)O)C(=O)N[C@H](Cc3c[nH]c4ccccc34)C(=O)N[C@H](CCC(N)=O)C(=O)N[C@H](Cc3c[nH]c4ccccc34)C(=O)N[C@H](CC(C)C)C(=O)N2)C(N)=O)COCCC(=O)NCCOCCOCCOCCOCCC(=O)NCCCC[C@@H](NC(=O)CNC(=O)[C@@H](CC(C)C)NC(=O)[C@@H](CCC(=O)O)NC(=O)[C@H]2CSSC[C@@H](NC(=O)[C@H]3CCCN3C(=O)[C@@H](Cc3c[nH]cn3)NC(C)=O)C(=O)N[C@H](CC(=O)O)C(=O)N[C@H](Cc3ccc(O)cc3)C(=O)N3CCC[C@@H]3C(=O)N[C@H](CCC(=O)O)C(=O)N[C@H](Cc3c[nH]c4ccccc34)C(=O)N[C@H](CCC(N)=O)C(=O)N[C@H](Cc3c[nH]c4ccccc34)C(=O)N[C@H](CC(C)C)C(=O)N2)C(N)=O)C1=O (stereo partly shown) [C18-PIE12-trimer] | 93 | 0.766 | 900 | 2.5 | 1.05 | 0.23 | 0.713 | 196 | 2 | 1.39 | –
